# From patent US20160326219A1, “OPTICALLY ACTIVATED RECEPTORS” (IST AUSTRIA (INSTITUTE OF SCIENCE AND TECHNOLOGY AUSTRIA), priority 2013, published 2016)
# How the values were obtained:
# MAPK pathway = assay: Stimulation and detection of MAPK signaling, PathDetect Elk1 luciferase reporter (HEK293 cells); assay type: cell-based, human
# Experimental: For light stimulation of cells, an incubator (PT2499, ExoTerra/HAGEN, Holm, Germany) was equipped with 300 light emitting diodes (JS-FS505ORGB-W30 with JS-CON-004 controller, Komerci, Ebern, Germany; λmax˜630 nm (red), λmax˜530 nm (green), λmax˜470 nm (blue), bandwidth ˜±5 nm). Light intensity was controlled with an analog dimmer and measured with a digital power meter (PM120VA, Thorlabs, Munich, Germany). Intensities at maximal output were 2.3 (red), 2.6 (green) and 3.3 (blue light) W/m^2. For stimulation over extended time periods (>8 h), an aluminium box was equipped with the same light-emitting diodes and controller and placed in an incubator with standard tissue culture conditions (see below).
# HEK293 cells and CHO-K1 (American Type Culture Collection (ATCC), Manassas, Va.) cells were maintained in DMEM supplemented with 10% FBS, 100 U/ml penicilin and 0.1 mg/ml streptomycin in a humidified incubator with 5% CO2 atmosphere. After trypsination, 5×10^4 cells were seeded in each well of 96-well plates (three to four wells for each construct) coated with poly-L-ornithine (Sigma, Vienna, Austria). Either transparent plates or black clear bottom plates were used. Cells were transfected using Lipofectamine 2000 (Invitrogen/LifeTech).
# Phycocyanobilin (PCB; Livchem Logistics GmbH, Frankfurt a.M., Germany) was dissolved in a dark room to a stock concentration of 10 mM in DMSO. Aliquots were stored in the dark at −20° C. Prior to experiments, cells were incubated with 50 μM PCB overnight in reduced serum starve medium at 37° C. PCB could also be applied to applied to living animals as it is non-toxic even in high doses (0.17% of diet or 10 mg/kg) (McCarty (2007).
# Activation of the MAPK pathway was assayed with the PathDetect Elk1 trans-Reporting System (Agilent) consisting of an Elk1 phosphorylation-dependent trans-activator and a luciferase-based trans-reporter. Cells were transfected with 213.3 ng total DNA per well (receptor, trans-activator and trans-reporter at ratio of 1:3:60 or 1:30:600) using Lipofectamine 2000. Six h after transfection medium was replaced with CO2-independent reduced serum starve medium (Gibco/Life Technologies; supplemented with 0.5% FBS, 2 mM L-Glutamine, 100 U/ml penicilin and 0.1 mg/ml streptomycin) for 18 h at 37° C. Cells were transferred and were either kept under constant illumination for 8 h or were protected from light. Chemical stimulation of imFGFR1 followed the same procedure, except that 10 nM AP20187 ((Clackson 1998); ARIAD Pharmaceuticals, Cambridge, Mass.) were added before transfer to the stimulation incubator. After incubation, plates were washed once with PBS and luciferase was detected with standard, off-the-shelf reagents. These were either Luciferase 1000 Assay System (Promega, Mannheim, Germany) in combination with a microplate reader equipped with an injector (Tecan Infinite 200 Pro, Maennedorf, Switzerland), or ONE-Glo Assay System (Promega) in combination with a microplate reader not equipped with an injector (BioTek Synergy H1). These assay systems provide equivalent results.
# SPC212 cells = assay: Stimulation and Western blot (SPC212 cells); assay type: cell-based, human; conditions: ~3 μW/mm^2
# Excerpt: (§1) M38K and SPC212, two malignant pleural mesothelioma cell lines, were maintained in RPMI1640 supplemented with 10% FBS. Telomerase-immortalized microvascular hBE cells were maintained in Clonetics EGM2 MV endothelial growth medium (Lonza, Wakersville, Md.) supplemented with 5% FBS. For retrovirus generation, Opto-mFGFR1 or mCherry as control was subcloned into pQCXIP (Clontech, Mountain View, Calif.) using EcoRI and NotI restriction enzymes. Viral particles were generated in HEK293 cells by co-transfection with the helper plasmids pVSV-G and p-gag-pol-gpt. Supernatants were used to transduce M38K, SPC212 or hBE cells grown to 50% confluency in 6-well plates. Cells were selected with 0.8 μg/ml puromycin for 10 d and transgene expression was verified by immunoblotting.
# (§2) For immunoblotting, 5×10^5 cells were seeded in each well of 6-well plates. After 24 h, medium was replaced with reduced serum medium (M38K, SPC212). After additional 20 h, cells were transferred to the stimulation incubator and illuminated for 1, 5 or 15 min or shielded from light. Cells were then either immediately or after additional 5, 15 or 30 min in the dark washed and lysed in 50 μl lysis buffer per well on ice. Lysates were sonicated and centrifuged (12000 g, 5 min, 4° C.). […] Chemiluminescence was developed with WesternC reagent (Biorad, Hercules, Calif.) and signals recorded on X-ray film (GE Healthcare).
# blood endothelial cells = assay: Stimulation and Western blot (hBE cells); assay type: cell-based; conditions: ~3 μW/mm^2
# Excerpt: as §1, §2
# M38K cells [1] = assay: Stimulation and Western blot (M38K cells); assay type: cell-based, human; conditions: ~3 μW/mm^2
# Excerpt: as §1, §2
# M38K cells [2] = assay: Gene expression analysis, qPCR (M38K cells); assay type: cell-based, human
# Experimental: 5×10^4 M38K cells were seeded into each well of a 6-well plates. After 24 h, cells were illuminated with a cycle of 5 min light/15 min dark for 48 h. Control cells were kept in the dark. Total RNA was extracted with TRIZOL (LifeTechnologies) and reverse transcribed with MMLV reverse transcriptase (Thermo Scientific). cDNAs corresponding to 50 ng RNA per sample were subjected to SYBR green qPCR on an Abi Prism 7500 Sequence Detection System using published primers (cf. Sakuma, 2012; #2508). GAPDH was used for normalization and fold change of expression level was calculated as 2-ddCt of illuminated versus non-illuminated cells.
molecule,measurement,setting,value
"Opto-mFGFR1: chimeric receptor of mFGFR1 intracellular domain and VfAU1-LOV, SEQ ID NO: 58 (protein, mFGFR1-VfAU1-LOV) MGSSKSKPKDPSQRLDMKSGTKKSDFHSQMAVHKLAKSIPLRRQVTVSADSSASMNSGVLLVRPSRLSSSGTPMLAGVSEYELPEDPRWELPRDRLVLGKPLGEGCFGQVVLAEAIGLDKDKPNRVTKVAVKMLKSDATEKDLSDLISEMEMMKMIGKHKNIINLLGACTQDGPLYVIVEYASKGNLREYLQARRPPGLEYCYNPSHNPEEQLSSKDLVSCAYQVARGMEYLASKKCIHRDLAARNVLVTEDNVMKIADFGLARDIHHIDYYKKTTNGRLPVKWMAPEALFDRIYTHQSDVWSFGVLLWEIFTLGGSPYPGVPVEELFKLLKEGHRMDKPSNCTNELYMMMRDCWHAVPSQRPTFKQLVEDLDRIVALTSNQEYLDLSIPLDQYSPSFPDTRSSTCSSGEDSVFSHEPLPEEPCLPRHPTQLANSGLKRRVETGPDYSLVKALQMAQQNFVITDASLPDNPIVYASRGFLTLTGYSLDQILGRNCRFLQGPETDPRAVDKIRNAITKGVDTSVCLLNYRQDGTTFWNLFFVAGLRDSKGNIVNYVGVQSKVSEDYAKLLVNEQNIEYKGVRTSNMLRRKTGGSGVDYPYDVPDYALD",MAPK pathway activation in response to blue light,"MAPK pathway; HEK293 cells expressing the fusion protein (LOV domain fused to RTK intracellular domain), ~3 μW/mm^2",activated the MAPK pathway similarly to imFGFR1
same,MAPK pathway activation in response to green light or red light,"MAPK pathway; HEK293 cells, control experiment",no effect
same,Activation by blue light after reducing the lifetime of VfAU1-LOV ~8-fold by mutation,"MAPK pathway; I472V, HEK293 cells, FIG. 5c",reduces Opto-mFGFR1 activation
same,MAPK pathway activation in response to blue light after loss of kinase activity,"MAPK pathway; kinase dead (Y271F, Y272F), HEK293 cells",no effect
same,Blue light intensity at which activated,MAPK pathway; low intensity blue light,~3 μW/mm^2
same,Phosphorylation upon blue light stimulation,SPC212 cells,rapid phosphorylation of Opto-mFGFR1 and ERK1/2 as well as AKT and phospholipase Cy (PLCy)
same,Phosphorylation upon blue light stimulation,blood endothelial cells,rapid phosphorylation of Opto-mFGFR1 and ERK1/2
same,Phosphorylation upon blue light stimulation,M38K cells [1],rapid phosphorylation of Opto-mFGFR1 and ERK1/2
same,Gene expression changes upon light stimulation,M38K cells [2],EMT-like gene expression changes
